Measurements taken from patent publication CN117430709A (KANGWEI ZHONGHE ZHONGSHAN BIOLOGICAL PHARMACEUTICAL CO LTD; …, dated 2024).

B1: NbBCMA-5 (VHH)
VHH: QVQLVETGGGLVQAGGSLRLSCAASGTIFSVYNMGWFRQAPGKQRELVAAITKNGSTSYKDSVKGRFTISTDNAKNTVDLRMSSLKLGDTAVYFCAAWDWDKNQAYWGQGTQVTVSS
notes: Expressed in E. coli from PET30a(+); the supernatant of sonicated bacteria was used in flow cytometry; not shown: His tag from the PET30a(+) vector (detected with anti-his-FITC)
B2: NbBCMA-8 (VHH)
VHH: QVQLVESGGGLVQAGGSLRLSCAASTRTFSSYVMAWFRQVPGKEREFVASRACSGGTPYYADSVKGRFFISRDDAKNTVYLRMNSLKPEDTAVYYCAAASIGATQYDYWGQGTQVIVSS
notes: as for B1

Molecular target: T1, BCMA on multiple myeloma cell lines RPMI8226 (low BCMA) and U266 (high BCMA) (human, UniProt Q02223 1-184)
T1 construct: whole, on cells; endogenous expression; also called CD269; TNFRSF17
T1 sequence (looked up): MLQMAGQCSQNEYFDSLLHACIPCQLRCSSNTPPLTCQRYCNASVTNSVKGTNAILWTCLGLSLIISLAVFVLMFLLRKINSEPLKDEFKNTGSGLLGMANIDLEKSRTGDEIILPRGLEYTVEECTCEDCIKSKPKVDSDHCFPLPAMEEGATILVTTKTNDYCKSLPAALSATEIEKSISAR
Experiment: flow cytometry on RPMI8226 cells (low BCMA), anti-his-FITC

| Binder | binding result |
| --- | --- |
| B1 | binds |
| B2 | binds |
